Series [1] has as its target T1, PQQ domain of CcSDH (Coprinopsis cinerea, UniProt A0A0A8IDB7).
T1 construct: gene PDH; PQQ dehydrogenase domain only: N-terminal 221 residues (heme domain) and last 77 C-terminal residues (with CBM1) removed; begins at T222 (primer encodes TFVSC); secreted from Pichia pastoris
T1 sequence (A0A0A8IDB7 240-649): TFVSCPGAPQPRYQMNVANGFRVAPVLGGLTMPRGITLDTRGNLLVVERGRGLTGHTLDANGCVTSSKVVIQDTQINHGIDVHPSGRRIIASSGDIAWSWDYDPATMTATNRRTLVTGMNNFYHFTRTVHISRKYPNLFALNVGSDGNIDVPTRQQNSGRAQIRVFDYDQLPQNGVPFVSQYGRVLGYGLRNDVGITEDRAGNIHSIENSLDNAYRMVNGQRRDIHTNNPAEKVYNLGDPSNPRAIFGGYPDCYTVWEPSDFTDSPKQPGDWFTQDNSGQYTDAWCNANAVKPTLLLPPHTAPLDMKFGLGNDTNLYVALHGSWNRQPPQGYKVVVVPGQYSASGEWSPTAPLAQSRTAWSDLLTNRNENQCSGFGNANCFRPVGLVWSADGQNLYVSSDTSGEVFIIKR
The experiment in a line: isothermal titration calorimetry, single-site model. The class given is binding. For orientation: ITC needs no label: the signal is the heat of the interaction.

Substrate in series [2]: O=CC(=O)[C@@H](O)[C@H](O)[C@H](O)CO
As to the kind of experiment: purified protein. The note with it: 50 mM Tris-HCl pH 8.5, 1 µM PQQ, 1 mM CaCl2, 50 µM cytochrome c, 30 °C, background reduction by D-glucosone subtracted. The class given is biochemical, Coprinopsis cinerea.

In series [1], `O=C(O)c1cc(C(=O)O)c2c(n1)C(=O)C(=O)c1cc(C(=O)O)[nH]c1-2` [Pyrroloquinoline quinone] showed a Kd of 1.11 nM.

B1: CcSDH (C. cinerea sugar dehydrogenase), full-length recombinant (Coprinopsis cinerea) (protein)
chain: QGSPTQWYDSITGVTFSRFYQQDTDASWGYIFPSASGGQAPDEFIGLFQGPASAGWIGNSLGGSMRNNPLLVGWVDGSTPRISARWATDYAPPSIYSGPRLTILGSSGTNGNIQRIVYRCQNCTRWTGGAGGIPTTGSAVFGWAFHSTTKPLTPSDPSSGLYRHSHAAQYGFDIGNARTTLYDYYLQQLTNAPPLSGGAPTQPPTQQPPTTTAPPPPPPSSTFVSCPGAPQPRYQMNVANGFRVAPVLGGLTMPRGITLDTRGNLLVVERGRGLTGHTLDANGCVTSSKVVIQDTQINHGIDVHPSGRRIIASSGDIAWSWDYDPATMTATNRRTLVTGMNNFYHFTRTVHISRKYPNLFALNVGSDGNIDVPTRQQNSGRAQIRVFDYDQLPQNGVPFVSQYGRVLGYGLRNDVGITEDRAGNIHSIENSLDNAYRMVNGQRRDIHTNNPAEKVYNLGDPSNPRAIFGGYPDCYTVWEPSDFTDSPKQPGDWFTQDNSGQYTDAWCNANAVKPTLLLPPHTAPLDMKFGLGNDTNLYVALHGSWNRQPPQGYKVVVVPGQYSASGEWSPTAPLAQSRTAWSDLLTNRNENQCSGFGNANCFRPVGLVWSADGQNLYVSSDTSGEVFIIKRMSGPIVQPPITQPPITTSPPTPTTPPVVQPPTTVAPPQASQTLWGQCGGQGWTGPTLCPANSVCRESNQWYSQCVPA
notes: mature protein without 18-residue signal peptide (726-aa ORF); AA8 cytochrome b + PQQ dehydrogenase + CBM1 domains; secreted from Pichia pastoris (pPICZalpha), glycosylated, 98 kDa on SDS-PAGE; genome locus Chromosome 6:1274274-1277156
For B1, in series [2], the Km was 7.9 (±0.3) mM, the kcat came to 74.1 ± 1.4 s⁻¹ and the kcat/Km was 9370 M⁻¹ s⁻¹.

Broadly, the Kd is a measure of binding affinity in units of concentration. A low value points to tighter binding. For orientation: kcat means the number of substrate molecules converted per active site and unit of time at saturation. Broadly, the kcat/Km is the turnover number divided by the Michaelis constant.

Source of the values: PMC4133262, “Discovery of a Eukaryotic Pyrroloquinoline Quinone-Dependent Oxidoreductase Belonging to a New Auxiliary Activity Family in the Database of Carbohydrate-Active Enzymes” (PLoS ONE, 2014).
